T1: CD20 antigen (human, UniProt P11836 1-297)
T1 construct: whole, on cells; Carried by the cell lines SKW and SB (CD20+/CD23+) and DHL-4 (CD20+/CD23-); also called human CD20
T1 sequence (looked up): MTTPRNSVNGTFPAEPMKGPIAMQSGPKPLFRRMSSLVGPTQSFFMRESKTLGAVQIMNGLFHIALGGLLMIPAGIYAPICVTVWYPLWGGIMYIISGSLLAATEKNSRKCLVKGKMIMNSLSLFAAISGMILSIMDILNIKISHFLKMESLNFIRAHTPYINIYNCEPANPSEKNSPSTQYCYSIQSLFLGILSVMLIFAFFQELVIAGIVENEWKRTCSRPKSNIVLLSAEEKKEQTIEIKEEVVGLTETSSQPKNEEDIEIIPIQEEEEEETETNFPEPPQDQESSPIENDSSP

B1: C2B8, mouse/human chimeric monoclonal antibody specific for CD20 (150 kDa IgG monomer) (antibody, V domains shown)
VH: QVQLQQPGAELVKPGASVKMSCKASGYTFTSYNMHWVKQTPGRGLEWIGAIYPGNGDTSYNQKFKGKATLTADKSSSTAYMQLSSLTSEDSAVYYCARSTYYGGDWYFNVWGAGTTVTVSA
VL: QIVLSQSPAILSASPGEKVTMTCRASSSVSYIHWFQQKPGSSPKRWIYATSNLASGVPVRFSGSGSGTSYSLTISRVEAEDAATYYCQQWTSNPPTFGGGAKLEIKR
notes: also called C2B8 monomer; chimeric C2B8
B2: C2B8 (-s-s-) homodimer, disulfide linked IgG/IgG homodimer of C2B8/SH (300 kDa, tetravalent) (antibody, V domains shown)
VH: QVQLQQPGAELVKPGASVKMSCKASGYTFTSYNMHWVKQTPGRGLEWIGAIYPGNGDTSYNQKFKGKATLTADKSSSTAYMQLSSLTSEDSAVYYCARSTYYGGDWYFNVWGAGTTVTVSA
VL: QIVLSQSPAILSASPGEKVTMTCRASSSVSYIHWFQQKPGSSPKRWIYATSNLASGVPVRFSGSGSGTSYSLTISRVEAEDAATYYCQQWTSNPPTFGGGAKLEIKR
modifications: engineered cysteine near the carboxyl terminus of the gamma 1 chain (printed as position 444 and as position 445) joins the two IgG molecules by an intermolecular disulfide bond
notes: also called C2B8 (disulfide linked) homodimer; C2B8 homodimer

How the values were obtained:
CD20 antigen [1] = biological target: T1, CD20 antigen; test: competitive binding on SKW cells against murine 2B8, flow cytometry with FITC anti-human IgG (by the method, 2B8 was serially diluted and C2B8 fixed at 1 µg/ml)
Description: (§1) Binding of monomer and dimerized antibody to various cells was evaluated by indirect immunostaining using FITC anti-human IgG and analyzed using flow cytometry (indirect IF). Cells (2×10^6 viable cells in 0.1 ml cmfPB S/2% Fetal Calf Serum/0.1% Sodium Azide, PBS/FCS buffer) were incubated for one hour on ice with 0.1 ml of 5 fold serially diluted antibody. Cells were twice washed by centrifugation (200×g) using 2 ml PBS/wash and suspended in 0.2 ml FITC conjugated Goat (Fab')_2 anti-human IgG (Jackson Immunoresearch #30869, 5 µg/ml in PBSIFCS buffer). After 30-min. incubation on ice, cells were again washed in PBS and suspended in 0.2 ml 0.5% freshly diluted formaldehyde, capped and stored at 4° C. until analysis. The amount of cell bound antibody was determined by flow cytometry (FACScan, Becton-Dickenson, Mountain View, Calif.).
(§2) The binding affinity of the C2B8 homodimer and monomer for the CD20 antigen was compared using a competitive binding assay (FIG. 10). SKW cells were first incubated for 30 minutes on ice with various amounts of 5-fold serially diluted murine (anti-CD20) MAb 2B8, and by 0.1 ml (at 1 µg/ml) of either C2B8 monomer or homodimer. Indirect IF, as described for FIG. 9, evaluated the amount of C2B8 binding. […]

CD20 antigen [2] = biological target: T1, CD20 antigen; test: competitive binding on SKW cells against murine 2B8, flow cytometry with FITC anti-human IgG (by the method, 2B8 was serially diluted and homodimer fixed at 1 µg/ml)
Description: as §1, §2

| IC50 (CD20 antigen [1]) | IC50 (CD20 antigen [2]) | Binder |
| --- | --- | --- |
| 9.8 µg/mL | – | B1 |
| – | 10.4 µg/mL | B2 |

— patent publication US6897044 (Biogen, dated 2005)
